This is an account of results in the DeepSol protein solubility set.

This data set can be described thus: soluble on expression in E. coli; label from the status in PepcDB or PDB records.
For the sequence “MGSDKIHHHHHHGEDEKKPEIVVDPAEKTIEYYIAGKVTEGTTALSGVEVKAGEVTATTDAEGAYKLTVDSKKMYTVTFSKEGYMSIDNATATIADNAANRSMVSLSVKLSKKAPEKEVKADAEEEVVVTDKGDSNISQAEAAVIIPPKAIETTTTVSVTPYEEPAAVTTTVTPGNNVETPVAIANIEVETAKEVTLAKPVTLAIINKASEHTTFENVEVYNQKTTTRAGENWNKVADAIYDSETNSYKFTLPAGASLSGKYSMRVKSSKTTGKERIGETNKEEKKSNEGNMTAIPEYKINFEATAGWEYTVSPEKALMNAGVDAADAQGMATTINSAIEAQEGTTGTYKVAHELIAGISGNHILYYLNQAKYCEKTYTFKISGGRTVTITLKFYTGMQITYTNVEASQHSGGKI”, the “soluble on expression in E. coli” value is “not soluble”.

Consider “MGSDKIHHHHHHVTFFERYSRVLFERYQGKVKYWLTFNEINGAQFMPMLSLGMAVREDENMLQSTYQGLHHQFVASSLATKAAREIDPTMQIGCMLIAAPVYPFSSNPVDVQFALEEERMMNYFCGDVHVRGAYPAFAGRFFSENNIELVVEDGDLELLRDYTVDFFSLSYYMSRTEKAEKDGNEAGGNIMSGVKNPYLKASDWGWEINPDGLRIILNKLYDRYQIPLFIVENGLGAYDEIIASNGATLTQTSVSK”, for which the “soluble on expression in E. coli” value is “not soluble”.

On to “MKMKLTAAIIAAFVIIMGCAGGPKASKADELDLAIRDTSDYLNDNIPKGNKIIILNIQSDYASLSDYIIDELIANAVNDKIFKVVDRAQLEQIRAELNFQWSGEVDDKSALEIGKFLGAQTIVSGAISELGDRYRMRLRALNVQTSQVQGQYNRNIAAGKTIAALMKGGKSANTVYGGRTASGNANDTTAANQTPSRQPATPSSPQGSTKPVTTTYKIGDTGPAGGLIFYDKGNNIGGWRYLEAAPSDLGPNKFITEDPGSLPKNLYDLWEKTDGDKGRGVGKGKYNTEFLMGIAQARGGFNWAIRLCDEYELNGYNDWFMPSRDELNFMYGNLHMKGLGNFRLEQYWSSTGWQDTWGSYSAWYINFEDGTAAYQNASQPRRFRPIRQF”, for which the “soluble on expression in E. coli” value is on record as “not soluble”.

For the sequence “MTVRALLTPEIAPRMGIVLFRPGSELMPLFMQGRVLLEPEPERYSSFASGAVPAASQPLADDPAVRAVFRNEAVIRRAGGVECLESWLLREKGCQWPHSDWHSENMTTMRHAPGAIRLCWHCDNQLRDQFTERLESMATDNCARWVLSVVRRDLGFDDSHVVTMPELCWWLVRNDLADALPESAARKALRLPKPVVPSVTRESDLVPSVPATSIIQDKAKKVLALKVDPESPESFMLRPKRRRWVNEKYTRWVKTQPCACCGKPADDPHHLIGHGQGGMGTKAHDLFVLPLCRKHHDELHADTVTFEEKYGSQLELIFRFIDRALAIGVLA”, the “soluble on expression in E. coli” value was “not soluble”.

Consider “MAHHHHHHMSVFEARQKVYATLHGTFHAAIVQEVAVDAETGQYLYYVHYVEQDSRMDCWLPASELKERRQGRQASKQQTNKSGGGGITTRGQSRLVAGKEDEVSRGPNTPTSSAKRSNLQNCVKVSTTRARKDSSFFSRPKNIHSICMGPYEVATWYFSPYHLARPQIQQGLKQNAELFSGKMELQLRQENKKSAFQTAVVPTSFVLHICPFCLHPFTAHEDVVRHLQIVCPRHPPGNEIYRDPVRQLVVLEMDAVVEPVFCEHLALLSKLFLEHKALDHDMTPFLFYVLCAVQPHGLEVLGYFSKEKQSPEMYNLSCILVLPQFQSRGIGRFLIELSYELSRREGRIGSPEKPLSDLGEKLYLGYWGDVIVSALARAIEENHCATLEYLVQATYLSQADVLRTLQYLRLLNGTQIVVSEESIERCYSRRLHRERSGKNYVFYPHLLSWSPHMYYELKEQDVAPPIYVTQSEELEQNAASKGQRVF”, for which the “soluble on expression in E. coli” value was “not soluble”.

For “MAHHHHHHMSEINIIKAFGILLCRLKKYNPVTTGDINKFEFLFLKASYADKHWTPPKGLHENNESGLETAVRETLEETGINKDKYKLLNYQKTLKYNVKDKPKETTYYLAMLLNNEENVILSDEHTDYKWIGSHESDTYNLPESLADLLKEAEEFLNKEQL”, the “soluble on expression in E. coli” value is “soluble”.

For “AIAAEPIELLCWGGDWDLPSVQTDSLTVLAYAKFAGAELTVKFVDWTWRTITASVPQIHYEGTTVTEPTQILNFLRKQRFNADFELTAKQGADTMAYIALLEEKLRPALLHTFWVDAENYANLTRPWFTSHSPFPLNFFVPGRQASLALSRILLTKAESPLLNITEVEGKIYSEAKECLNLLSHRLGNFNFFFGDTPTSLDAFVFGHIAPLIKAPLPSGQLQKHLNQLDNLCQFCNTILKNYFTDATAEKRMDCSPTVAHDFVDANLQKLTQLVNKESNLIEKMDDNLRSSPQHRPHRHEAKPSAPASDRNSTPA”, the “soluble on expression in E. coli” value is reported as “soluble”.

For “MGSDKIHHHHHHMANVKWTMKAREFVNCNCAYGCPCQFNAMPTHGFCQAVTGIEIESGHHGATKLDGLRLVGIFRWPGAIHQGGGEAAVVVDERASEAQREALLRILGGQDTKPGATIFEVFSTTLEKFHDPIFAPIEFEVDVDARTGRLHVEGVADGHGEPIKNPVTGAEHRARIDLPHGFEYAMAEIGRGWTKATGPIKFEVADTHSHFANLHLTQSGVVH”, the “soluble on expression in E. coli” value is given as “not soluble”.

For the sequence “MGSDKIHHHHHHMNRDTERTTMEGEHLYSPKNDDAPPAPAPDSPASLLDELIEAARVKRDEEAYPITRHGIEAFVAHLARPKRPIETVSQATIDDMIAEIDRKLCRQVDAILHHPDFQQLESTWRSLKFLVERTDFRENIKIQFLDVGKAALLDDFDDSPDITKSGLYQKVYAAEYGQFGGQPIGAIVANYTFGPGAQDVKLLQYVASTSAMAHTPFIAAAGPAFFGIDSFGKLPNVKDLASLFEGPQFAKWNAFRESEDARYVGLTLPRFLLRLPYGANTTPVKRFNYDERVDGGDADFLWGNAAFAFATRLTASFADYRWCANVIGPKGGGTVADLPLYAYEAMGEIQNKIPTDVLISERREFELAEQGFIALTMRKHSDNAAFFSANSTQKPKFFGISKEGKDAELNYRLGTQLPYIFVVNRLAHYIKVIQRENIGTWKERGDLEQELNQWIRQYVADMDNPTEGVRSRRPLRQAEIFVSDVEGEPGWYRVDMKVRPHFKYMGASFTLSLVGKLEKR”, the “soluble on expression in E. coli” value is given as “not soluble”.

Take “MAEECSGNCDSCGSSSDCSDTKKMMEQQNAQIRDNMSKIKYKIAVMSGKGGVGKSTVTVNLAATLNMMGYKVGVLDGDIHGPNIPQMLGVDQIQPMADENGIYPVSTPQGIKTMSIGYFLPDKNTPIIWRGPKASGAIRQFLSDVNWGELDFLLIDTPPGSGDIQITTLQAIPDIDGVVIVTTPEEVSVLDARKSVSAANTLEIPIIGIVENMGGFVCPECDKVIDIFGKGGGEKAAKELNVFFLGRIPLDIKARVASDRGVPMVTMDCKASEEFKKVVNTVLERIKKELEHHHHHH”: the “soluble on expression in E. coli” value is listed as “soluble”.

Take “MSIRILPENEIKPSASAFEIPPLLFANPKNLYTRRAKRLRELAKNNPLRDYLEFAAHLVDIQLTLLETAPIGNYAEKLTAYLTENQGQKPLNKQQFARDEKWLELLLALIKQCKPYATGAILTTLEFLEKASYAELNNLADHLLNERYEQVSPDQSVFIWLALSLYWTQLAQQLPRHTQAEIGERHTCPVCGSAPITSVIHLDKTQGLRYLHCALCESEWNMTRAQCSNCDESGDLNYWSFDTVEAPIKAESCGDCHSYLKVLYQEKDPYVEPLADDLASLMLDIEMEQKGFVRSGLNPFLFSIE”: the “soluble on expression in E. coli” value was “not soluble”.

As for “MAEKEHNPGNVKPNRSWTSVLGTKITFSEGLILNIEGYYKYIFNRMYIPVSIGLDDFDIRPQFNGEGRVWGIDLMLQKLQSRYWDGWLSYSYSWARYRDPSSGNATIGFSGGTRGNDWYFPNFHRFHNLNLVINIKPAPQFNFYTRFGLASGTQLPRRTTDRPATYPVFMFDDPETPGIPKFVQRYNWPSETDEDNRTTPTLSMDIKFSFFGKNRTGKTRYEIYFALENVLSLVYRPQGNTRFNTFTGVIETGSDAASYGLPIPIPSFGFKFSY”, the “soluble on expression in E. coli” value is recorded as “not soluble”.

Turning to “MGSDKIHHHHHHMASQRGDTKLQLLRDTSLSHDGLNHTILTLNQLLHQRAPFYGEHLSATTSPTGLSFDEWSCADTYQKLIARFAIAHPSAENQTETKTENETETDKTAATSRTPAFASKSALVSKNAVPSRKDTRKALHSLWGQWYFGLLVPPMMEWIFNAPKTDVETLHWQPQSVFMQVHPSGRVAKFEFKIAKYQPITALTFKKHHGIEPLSRTNTKPSIKIDTEVHSPLSPYKPSVDKELVLQGFILNLLQSSVDRLLTLSPVPAKLYWSHLGYLIHWYLGELGLSQQQNQQLKQALFRRTTFLDGSTNPLYNSINLLIEPEQDSATPYTVARIVTSTASRSKPSPKIHCIRRTCCLRYQLANTGQCHDCPLLSRAKVNVNATKQT”, the “soluble on expression in E. coli” value is given as “not soluble”.

In the case of “MREDHSPRRNNTIENTLTELLPNRLYFGCFPNPDAIDKSDKSVKKTCFININNKFHYEPFYEDFGPWNLSVLYRLCVQVGKLLEVEEKRSRRVVLFCQDDGTGQYDKIRVNTAYVLGAYLIIYQGFSADDAYLKVSSGETVKFVGFRDASMGSPQYLLHLHDVLRGIEKALKFGWLDFSDFDYEEYEFYERVENGDFNWIIPGKILSFCGPHNESREENGYPYHAPDVYFDYFRENKVSTIVRLNAKNYDASKFTKAGFDHVDLFFIDGSTPSDEIMLKFIKVVDNTKGGVAVHCKAGLGRTGTLIACWMMKEYGLTAGECMGWLRVCRPGSVIGPQQPYLIEKQKFCWSLSQSNGVHLTQNKEEKRNVRRLVNQVDDINLGEERISPKSRENTRPNILRRRVQVQNGRSTAPVTIAPAGTSESRRSTKPSRVVDETALDDQGRSQGDRLLQLKAKHQHESETTSPNSSSSRRFVKSSTPQMTVPSQAYLNRNREPIIVTPSKNGTSSGTSSRQLKTTPNGNVAYRTRNSSGNTTSTLTRTPASAVFPSMASRRSETTRYLSPTTPIKPMSPSYTDGTSPRYKARLRSENPIGSTTSTPFSLQPQFGLVRVPPDSPHSIMAHRPPPTTSSRAPLSPHNYSTTQGYSTSSRGLYGDKKPLARGSVSTSTLPSMYMTRKMSENGAVEVEITTSYVEDRKAAEQIDPSSTPPEPKRRFVLVSRKIVSKEVPSAGPTCSNDPRLNYASTRKLPIKISHRLCQICRTIKPIADISMMTDENEKLFILLAAIFQRKLFVEECTRIYKQPAVYTCSSHYSEASTAILNMFGVGGALRIFRARPRKVSQVEKFASHLMGKQFEEDKLIHSAYMFVLNHPEAGAVTGPIIKEEDIPFEETVECSSTTAVNGILPKCFRQPRKQKLEEDSCSSSILRIIKKTTPSLPNRSYTMINQNMEHPLQCCYCLEVYEKRYMTQVPKTEQRIARWVAILGEQFRIRLRMKPANYMCRKHFPQADFSSRGRLLKTAVPNVVSQEKVLAFKLEGNTFVEVKEDNTNIKMEKGTDSEIDIEN”, the “soluble on expression in E. coli” value is “not soluble”.

As for “GMLESTKQFLKKYNINDRVLKLYETAMNDIQNQFKILDDIREFNQLKVLNAFQEERISEAHFTNSSGYGYGDIGRDSLDAVYARVFNTESALVRPHFVNGTHALGAALFGNLRPGNTMLSVCGEPYDTLHDVIGITENSNMGSLKEFGINYKQVDLKEDGKPNLEEIEKVLKEDESITLVHIQRSTGYGWRRALLIEDIKSIVDCVKNIRKDIICFVDNCYGEFMDTKEPTDVGADLIAGSLIKNIGGGIAPTGGYLAGTKDCIEKTSYRLTVPGIGGECGSTFGVVRSMYQGLFLAPHISMEALKGAILCSRIMELAGFEVMPKYDEKRSDIIQSIKFNDKDKLIEFCKGIQTGSPIDSFVSCEPWDMPGYTDQVIMAAGAFIQGSSIELSADAPIREPYIAYLQGGLTFDHAKIGILIALSRIVK”, the “soluble on expression in E. coli” value is “soluble”.

As for “MPLVLDLARPVSEEELRRLSELNPGYQWERSPEGRLWVSPTGGESGRRSLQLAYQLARWNEERGLGVVFDSSTGFKFPDGSILSPDAAFVERGAWEALSEAEREGFPPLAPKAVFEVRSASQDPEELRAKMGIYLRNGVLLGVLVDPYARAVEVFRPGKPPLRLEGVERVSLDPELPGFALSLPPLW”, the “soluble on expression in E. coli” value is “soluble”.
